Assay results published in US20050079574A1.

Target: IGF1 (Insulin-like Growth Factor 1) (UniProt P05019)
Assay: IC50 (uM) column of the drawn table; phage clone of the F(ab')2 L3/H3 library on the 4D5 template, IC50 analysed as in Sidhu et al. (P-0517); source oligo (DVK)7

B1: SEQ ID NO 69 (antibody, part only; not given: template light chain, V domains shown, part only)
VH: EVQLVESGGGLVQPGGSLRLSCAASGFNIKDTYIHWVRQAPGKGLEWVARIYPTNGYTRYADSVKGRFTISADTSKNTAYLQMNSLRAEDTAVYYCSRSRGWWTAAMDVWGQGTLVTVSS
  IC50: 0.3 µM

B2: SEQ ID NO 70 (antibody, part only; not given: template light chain, V domains shown, part only)
VH: EVQLVESGGGLVQPGGSLRLSCAASGFNIKDTYIHWVRQAPGKGLEWVARIYPTNGYTRYADSVKGRFTISADTSKNTAYLQMNSLRAEDTAVYYCSRASRDWYGAMDVWGQGTLVTVSS
  IC50: 15 µM
